Our source for the Kd values is patent US20220064329A1 (Novo Nordisk, published 2022).

T1: recombinant human activated Factor VII (FVIIa) (human, UniProt P08709 61-212; P08709 213-466, ten glutamate residues of the Gla domain may be gamma-carboxylated)
T1 construct: chains tethered by a disulfide bond; also called Factor VIIa; rFVIIa
T1 sequence 1: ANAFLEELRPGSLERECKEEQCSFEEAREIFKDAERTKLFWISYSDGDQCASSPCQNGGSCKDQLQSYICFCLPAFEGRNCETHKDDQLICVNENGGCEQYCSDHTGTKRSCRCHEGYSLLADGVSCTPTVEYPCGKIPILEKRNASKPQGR
T1 sequence 2: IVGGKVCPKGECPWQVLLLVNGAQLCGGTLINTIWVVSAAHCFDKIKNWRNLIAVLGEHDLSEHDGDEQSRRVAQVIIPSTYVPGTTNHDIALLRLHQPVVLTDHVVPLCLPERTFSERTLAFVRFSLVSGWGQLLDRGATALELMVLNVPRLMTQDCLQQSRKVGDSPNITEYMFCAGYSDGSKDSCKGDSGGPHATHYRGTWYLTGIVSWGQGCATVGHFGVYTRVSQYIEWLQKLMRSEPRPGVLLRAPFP

B1: VH SEQ ID NO 650 / VL SEQ ID NO 318 (antibody, IgG4, V domains shown)
VH: QVQLQESGPGLVKPSQTLSLTCTVSGYSISSDSAWSWIRQPPGKKLEWIGYIQYSGSTNYNPSLKSRVTISRDTSKNQFSLKLSSVTAADTAVYYCARSVNYYGNSFAVGPWGQGTLVTVSS
VL: EIVLTQSPATLSLSPGERATLSCRASQGISDYLHWYQQKPGEAPRLLIKYTSQPATGIPARFSGSGSGTDFTLTISSLEPEDFAVYYCQNGHSFPLTFGQGTKLEIK
notes: humanized 11F2; IgG4 S228P/kappa
B2: VH SEQ ID NO 650 / VL SEQ ID NO 398 (antibody, IgG4, V domains shown)
VH: QVQLQESGPGLVKPSQTLSLTCTVSGYSISSDSAWSWIRQPPGKKLEWIGYIQYSGSTNYNPSLKSRVTISRDTSKNQFSLKLSSVTAADTAVYYCARSVNYYGNSFAVGPWGQGTLVTVSS
VL: EIVLTQSPATLSLSPGERATLSCRASQGVSDYLAWYQQKPGEAPRLLIKYTSQPATGIPARFSGSGSGTDFTLTISSLEPEDFAVYYCQNGHSFPLTFGQGTKLEIK
notes: as for B1
B3: VH SEQ ID NO 650 / VL SEQ ID NO 414 (antibody, IgG4, V domains shown)
VH: QVQLQESGPGLVKPSQTLSLTCTVSGYSISSDSAWSWIRQPPGKKLEWIGYIQYSGSTNYNPSLKSRVTISRDTSKNQFSLKLSSVTAADTAVYYCARSVNYYGNSFAVGPWGQGTLVTVSS
VL: EIVLTQSPATLSLSPGERATLSCRASQGVSDYLAWYQQKPGQAPRLLIKYASQPATGIPARFSGSGSGTDFTLTISSLEPEDFAVYYCQNGHSFPLTFGQGTKLEIK
notes: as for B1
B4: VH SEQ ID NO 650 / VL SEQ ID NO 430 (antibody, IgG4, V domains shown)
VH: QVQLQESGPGLVKPSQTLSLTCTVSGYSISSDSAWSWIRQPPGKKLEWIGYIQYSGSTNYNPSLKSRVTISRDTSKNQFSLKLSSVTAADTAVYYCARSVNYYGNSFAVGPWGQGTLVTVSS
VL: EIVLTQSPATLSLSPGERATLSCRASQGVSDYLAWYQQKPGQAPRLLIKYASQPATGIPARFSGSGSGTDFTLTISSLEPEDFGVYYCQNGHSFPLTFGQGTKLEIK
notes: as for B1
B5: VH SEQ ID NO 650 / VL SEQ ID NO 382 (antibody, IgG4, V domains shown)
VH: QVQLQESGPGLVKPSQTLSLTCTVSGYSISSDSAWSWIRQPPGKKLEWIGYIQYSGSTNYNPSLKSRVTISRDTSKNQFSLKLSSVTAADTAVYYCARSVNYYGNSFAVGPWGQGTLVTVSS
VL: EIVLTQSPATLSLSPGERATLSCRASQGLSDYLHWYQQKPGEAPRLLIKYASQPATGIPARFSGSGSGTDFTLTISSLEPEDFAVYYCQNGHSFPLTFGQGTKLEIK
notes: as for B1
B6: VH SEQ ID NO 650 / VL SEQ ID NO 406 (antibody, IgG4, V domains shown)
VH: QVQLQESGPGLVKPSQTLSLTCTVSGYSISSDSAWSWIRQPPGKKLEWIGYIQYSGSTNYNPSLKSRVTISRDTSKNQFSLKLSSVTAADTAVYYCARSVNYYGNSFAVGPWGQGTLVTVSS
VL: EIVLTQSPATLSLSPGERATLSCRASQGVSDYLAWYQQKPGQAPRLLIKYASQPATGIPARFSGSGSGTDFTLTISSLEPEDFAVYYCQNGHSFPLTFGAGTKLEIK
notes: as for B1
B7: VH SEQ ID NO 650 / VL SEQ ID NO 470 (antibody, IgG4, V domains shown)
VH: QVQLQESGPGLVKPSQTLSLTCTVSGYSISSDSAWSWIRQPPGKKLEWIGYIQYSGSTNYNPSLKSRVTISRDTSKNQFSLKLSSVTAADTAVYYCARSVNYYGNSFAVGPWGQGTLVTVSS
VL: EIVLTQSPATLSLSPGERATLSCRASQGVSDYLHWYQQKPGQAPRLLIKYASQPATGIPARFSGSGSGTDFTLTISSLEPEDFAVYYCQNGHSFPLTFGQGTKLEIK
notes: as for B1
B8: VH SEQ ID NO 650 / VL SEQ ID NO 358 (antibody, IgG4, V domains shown)
VH: QVQLQESGPGLVKPSQTLSLTCTVSGYSISSDSAWSWIRQPPGKKLEWIGYIQYSGSTNYNPSLKSRVTISRDTSKNQFSLKLSSVTAADTAVYYCARSVNYYGNSFAVGPWGQGTLVTVSS
VL: EIVLTQSPATLSLSPGERATLSCRASQGISDYLHWYQQKPGQAPRLLIKYTSQPATGIPARFSGSGSGTDFTLTISSLEPEDFAVYYCQNGHSFPLTFGQGTKLEIK
notes: as for B1
B9: VH SEQ ID NO 650 / VL SEQ ID NO 454 (antibody, IgG4, V domains shown)
VH: QVQLQESGPGLVKPSQTLSLTCTVSGYSISSDSAWSWIRQPPGKKLEWIGYIQYSGSTNYNPSLKSRVTISRDTSKNQFSLKLSSVTAADTAVYYCARSVNYYGNSFAVGPWGQGTLVTVSS
VL: EIVLTQSPATLSLSPGERATLSCRASQGVSDYLHWYQQKPGEAPRLLIKYASQPATGIPARFSGSGSGTDFTLTISSLEPEDFAVYYCQNGHSFPLTFGQGTKLEIK
notes: as for B1
B10: VH SEQ ID NO 650 / VL SEQ ID NO 366 (antibody, IgG4, V domains shown)
VH: QVQLQESGPGLVKPSQTLSLTCTVSGYSISSDSAWSWIRQPPGKKLEWIGYIQYSGSTNYNPSLKSRVTISRDTSKNQFSLKLSSVTAADTAVYYCARSVNYYGNSFAVGPWGQGTLVTVSS
VL: EIVLTQSPATLSLSPGERATLSCRASQGLSDYLAWYQQKPGEAPRLLIKYASQPATGIPARFSGSGSGTDFTLTISSLEPEDFAVYYCQNGHSFPLTFGQGTKLEIK
notes: as for B1
B11: VH SEQ ID NO 650 / VL SEQ ID NO 326 (antibody, IgG4, V domains shown)
VH: QVQLQESGPGLVKPSQTLSLTCTVSGYSISSDSAWSWIRQPPGKKLEWIGYIQYSGSTNYNPSLKSRVTISRDTSKNQFSLKLSSVTAADTAVYYCARSVNYYGNSFAVGPWGQGTLVTVSS
VL: EIVLTQSPATLSLSPGERATLSCRASQGISDYLHWYQQKPGEAPRLLIKYTSQPATGIPARFSGSGSGTDFTLTISSLEPEDFGVYYCQNGHSFPLTFGAGTKLELK
notes: as for B1
B12: VH SEQ ID NO 650 / VL SEQ ID NO 462 (antibody, IgG4, V domains shown)
VH: QVQLQESGPGLVKPSQTLSLTCTVSGYSISSDSAWSWIRQPPGKKLEWIGYIQYSGSTNYNPSLKSRVTISRDTSKNQFSLKLSSVTAADTAVYYCARSVNYYGNSFAVGPWGQGTLVTVSS
VL: EIVLTQSPATLSLSPGERATLSCRASQGVSDYLHWYQQKPGQAPRLLIKYASQPATGIPARFSGSGSGTDFTLTISSLEPEDFAVYYCQNGHSFPLTFGAGTKLEIK
notes: as for B1
B13: VH SEQ ID NO 650 / VL SEQ ID NO 334 (antibody, IgG4, V domains shown)
VH: QVQLQESGPGLVKPSQTLSLTCTVSGYSISSDSAWSWIRQPPGKKLEWIGYIQYSGSTNYNPSLKSRVTISRDTSKNQFSLKLSSVTAADTAVYYCARSVNYYGNSFAVGPWGQGTLVTVSS
VL: EIVLTQSPATLSLSPGERATLSCRASQGISDYLHWYQQKPGQAPRLLIKYASQPATGIPARFSGSGSGTDFTLTISSLEPEDFAVYYCQNGHSFPLTFGQGTKLEIK
notes: as for B1
B14: VH SEQ ID NO 650 / VL SEQ ID NO 342 (antibody, IgG4, V domains shown)
VH: QVQLQESGPGLVKPSQTLSLTCTVSGYSISSDSAWSWIRQPPGKKLEWIGYIQYSGSTNYNPSLKSRVTISRDTSKNQFSLKLSSVTAADTAVYYCARSVNYYGNSFAVGPWGQGTLVTVSS
VL: EIVLTQSPATLSLSPGERATLSCRASQGISDYLHWYQQKPGQAPRLLIKYTSQPATGIPARFSGSGSGRDFTLTISSLEPEDFAVYYCQNGHSFPLTFGAGTKLELK
notes: as for B1
B15: VH SEQ ID NO 650 / VL SEQ ID NO 446 (antibody, IgG4, V domains shown)
VH: QVQLQESGPGLVKPSQTLSLTCTVSGYSISSDSAWSWIRQPPGKKLEWIGYIQYSGSTNYNPSLKSRVTISRDTSKNQFSLKLSSVTAADTAVYYCARSVNYYGNSFAVGPWGQGTLVTVSS
VL: EIVLTQSPATLSLSPGERATLSCRASQGVSDYLAWYQQKPGQAPRLLIKYTSQPATGIPARFSGSGSGTDFTLTISSLEPEDFAVYYCQNGHSFPLTFGQGTKLEIK
notes: as for B1
B16: VH SEQ ID NO 650 / VL SEQ ID NO 438 (antibody, IgG4, V domains shown)
VH: QVQLQESGPGLVKPSQTLSLTCTVSGYSISSDSAWSWIRQPPGKKLEWIGYIQYSGSTNYNPSLKSRVTISRDTSKNQFSLKLSSVTAADTAVYYCARSVNYYGNSFAVGPWGQGTLVTVSS
VL: EIVLTQSPATLSLSPGERATLSCRASQGVSDYLAWYQQKPGQAPRLLIKYASQPATGIPARFSGSGSGTDFTLTISSLEPEDVAVYYCQNGHSFPLTFGQGTKLEIK
notes: as for B1
B17: VH SEQ ID NO 650 / VL SEQ ID NO 374 (antibody, IgG4, V domains shown)
VH: QVQLQESGPGLVKPSQTLSLTCTVSGYSISSDSAWSWIRQPPGKKLEWIGYIQYSGSTNYNPSLKSRVTISRDTSKNQFSLKLSSVTAADTAVYYCARSVNYYGNSFAVGPWGQGTLVTVSS
VL: EIVLTQSPATLSLSPGERATLSCRASQGLSDYLAWYQQKPGQAPRLLIKYTSQPATGIPARFSGSGSGTDFTLTISSLEPEDFAVYYCQNGHSFPLTFGQGTKLEIK
notes: as for B1
B18: VH SEQ ID NO 650 / VL SEQ ID NO 390 (antibody, IgG4, V domains shown)
VH: QVQLQESGPGLVKPSQTLSLTCTVSGYSISSDSAWSWIRQPPGKKLEWIGYIQYSGSTNYNPSLKSRVTISRDTSKNQFSLKLSSVTAADTAVYYCARSVNYYGNSFAVGPWGQGTLVTVSS
VL: EIVLTQSPATLSLSPGERATLSCRASQGVSDYLAWYQQKPGEAPRLLIKYASQPATGIPARFSGSGSGTDFTLTISSLEPEDFAVYYCQNGHSFPLTFGQGTKLEIK
notes: as for B1
B19: VH SEQ ID NO 650 / VL SEQ ID NO 350 (antibody, IgG4, V domains shown)
VH: QVQLQESGPGLVKPSQTLSLTCTVSGYSISSDSAWSWIRQPPGKKLEWIGYIQYSGSTNYNPSLKSRVTISRDTSKNQFSLKLSSVTAADTAVYYCARSVNYYGNSFAVGPWGQGTLVTVSS
VL: EIVLTQSPATLSLSPGERATLSCRASQGISDYLHWYQQKPGQAPRLLIKYTSQPATGIPARFSGSGSGTDFTLTISSLEPEDFAVYYCQNGHSFPLTFGAGTKLELK
notes: as for B1
B20: VH SEQ ID NO 650 / VL SEQ ID NO 422 (antibody, IgG4, V domains shown)
VH: QVQLQESGPGLVKPSQTLSLTCTVSGYSISSDSAWSWIRQPPGKKLEWIGYIQYSGSTNYNPSLKSRVTISRDTSKNQFSLKLSSVTAADTAVYYCARSVNYYGNSFAVGPWGQGTLVTVSS
VL: EIVLTQSPATLSLSPGERATLSCRASQGVSDYLAWYQQKPGQAPRLLIKYASQPATGIPARFSGSGSGTDFTLTISSLEPEDFAVYYCQQGHSFPLTFGQGTKLEIK
notes: as for B1

The assay concerns the target T1, recombinant human activated Factor VII …. The experiment in a line: BLI (Fortebio). For orientation: In BLI a coated tip is dipped into the sample, and binding shifts an interference pattern.
As a reminder, the Kd is the free concentration of one partner at which half of the binding sites on the other are occupied at equilibrium, for simple one-to-one binding. For the molecule B1, the Kd is 1.2 nM.
On to B2, for which the dissociation constant Kd stood at 55 nM.
In the case of B3 it was 84 nM.
As for B4, the figure is 28 nM; as for B5, 1.9 nM; as for B6, 180 nM.
In the case of B7 it was 1.6 nM; in that of B8, 1.1 nM.
As for B9, the dissociation constant (Kd) was 1.4 nM.
As for B10, the figure is 35 nM; as for B11, 1.1 nM; as for B12, 1.6 nM.
With B13, the equilibrium dissociation constant (Kd) came to 1.5 nM.
As for B14, the figure is 1.6 nM; as for B15, 39 nM; as for B16, 28 nM.
In the case of B17 it was 46 nM.
As for B18, the figure is 99 nM; as for B19, 0.99 nM.
As for B20, the dissociation constant (Kd) is 2600 nM.
